Measurements reported in patent publication US20110300138A1 (published 2011).
Blank lines part the entries; values can stand above or below the molecule they belong to.

Columns and labels:
[1] = molecular target: TSH receptor (TSHR), full length human, coated on tubes (human) (UniProt P16473); assay: inhibition of 125I-TSH binding to TSHR coated tubes; 1 µg/mL, diluted in HBD serum pool
[2] = molecular target: full length wild type human TSHR (human) (UniProt P16473); assay: TSHR260-AP bridge ELISA, wild type TSHR on wells; IgG at 10 µg/mL in HBD
[3] = molecular target: thyroid stimulating hormone receptor (TSHR), full length, coated on tubes (human) (UniProt P16473); assay: inhibition of 125I-TSH binding, TSHR coated tubes; antibody 100 µg/mL in assay buffer
[4] = molecular target: TSH receptor (TSHR), full length human, coated on tubes (human) (UniProt P16473); assay: inhibition of 125I-TSH binding to TSHR coated tubes; 0.01 µg/mL, diluted in HBD serum pool
[5] = molecular target: full length human TSHR with mutation Arg255 Asp (human) (UniProt P16473); assay: TSHR260-AP bridge ELISA, Arg255 Asp TSHR on wells; IgG at 0.05 µg/mL in HBD
[6] = molecular target: human thyroid stimulating hormone receptor (TSHR), full length (human) (UniProt P16473); assay: 125I-K1-70 Fab (competitor) binding to TSHR coated tubes; test sample 0.01 µg/mL in HBD serum
[7] = molecular target: thyroid stimulating hormone receptor (TSHR), full length, coated on tubes (human) (UniProt P16473); assay: inhibition of 125I-TSH binding, TSHR coated tubes; antibody 100 µg/mL in HBD serum pool
[8] = molecular target: TSH receptor (TSHR), full length human, coated on tubes (human) (UniProt P16473); assay: inhibition of 125I-TSH binding to TSHR coated tubes; 1 µg/mL, diluted in assay buffer
[9] = molecular target: human thyroid stimulating hormone receptor (TSHR), full length (human) (UniProt P16473); assay: 125I-K1-70 Fab (competitor) binding to TSHR coated tubes; test sample 10 µg/mL in HBD serum
[10] = molecular target: full length human TSHR with mutation Arg255 Asp (human) (UniProt P16473); assay: TSHR260-AP bridge ELISA, Arg255 Asp TSHR on wells; IgG at 0.1 µg/mL in HBD
[11] = molecular target: human thyroid stimulating hormone receptor (TSHR), full length (human) (UniProt P16473); assay: 125I-K1-70 Fab (competitor) binding to TSHR coated tubes; test sample 1 µg/mL in assay buffer
[12] = molecular target: thyroid stimulating hormone receptor (full length human TSHR) (human) (UniProt P16473); assay: ELISA, inhibition of TSH-biotin binding to TSHR coated wells; 100 µg/mL, diluted in assay buffer
[13] = molecular target: TSHR (full length) coated on tubes (human) (UniProt P16473); assay: inhibition of 125I-K1-18 Fab (competitor) binding to TSHR coated tubes; test sample 0.01 µg/mL in HBD serum
[14] = molecular target: full length wild type human TSHR (human) (UniProt P16473); assay: TSHR260-AP bridge ELISA, wild type TSHR on wells; IgG at 0.05 µg/mL in HBD
[15] = molecular target: full length human TSHR with mutation Arg255 Asp (human) (UniProt P16473); assay: TSHR260-AP bridge ELISA, Arg255 Asp TSHR on wells; IgG at 0.005 µg/mL in HBD
[16] = molecular target: human TSHR (thyroid stimulating hormone receptor) expressed in transfected CHO cells (human) (UniProt P16473); assay: cell-based or functional assay
[17] = molecular target: human thyroid stimulating hormone receptor (TSHR), full length (human) (UniProt P16473); assay: 125I-K1-70 Fab (competitor) binding to TSHR coated tubes; test sample 100 µg/mL in HBD serum
[18] = molecular target: human thyroid stimulating hormone receptor (TSHR), full length (human) (UniProt P16473); assay: 125I-K1-70 Fab (competitor) binding to TSHR coated tubes; test sample 0.1 µg/mL in assay buffer
[19] = molecular target: TSH receptor (TSHR), full length human, coated on tubes (human) (UniProt P16473); assay: inhibition of 125I-TSH binding to TSHR coated tubes; 10 µg/mL, diluted in HBD serum pool
TSHR260-AP (human) = assay: TSHR260-AP bridge ELISA (full length TSHR on wells, TSHR260-AP in solution); IgG 100 µg/mL diluted in assay buffer
[20] = molecular target: TSH receptor (full length human TSHR) (human) (UniProt P16473); assay: competition ELISA: inhibition of M22 Fab-peroxidase (competitor) binding to TSHR coated wells; negative control at 0.1 µg/mL diluted in HBD serum pool
[21] = molecular target: TSHR (full length) coated on tubes (human) (UniProt P16473); assay: inhibition of 125I-K1-18 Fab (competitor) binding to TSHR coated tubes; negative control 100 µg/mL in HBD serum
[22] = molecular target: TSHR with Lys209 mutated to Ala (human) (UniProt P16473); assay: cell-based or functional assay
wild type TSHR (human) = wild type TSHR (human) (UniProt P16473); assay: cell-based or functional assay
[23] = molecular target: TSH receptor (TSHR), full length human, coated on tubes (human) (UniProt P16473); assay: inhibition of 125I-K1-18 IgG (competitor) binding to TSHR coated tubes; test sample at 0.1 µg/mL in HBD serum pool
[24] = molecular target: human TSH receptor (full length) coated on ELISA plate wells (human) (UniProt P16473); assay: TSH-biotin binding inhibition ELISA, TSHR coated wells; 0.01 µg/mL in HBD serum pool
[25] = molecular target: TSH receptor (TSHR), full length human, coated on tubes (human) (UniProt P16473); assay: inhibition of 125I-K1-18 IgG (competitor) binding to TSHR coated tubes; test sample at 1 µg/mL in assay buffer

Molecule: 5B3 IgG (antibody)
Inhibition of binding (%) [1]: -4.9%
Inhibition of binding (%) [19]: -1.9%
Mean absorbance at 405 nm (absorbance at 405 nm) (TSHR260-AP (human)): -0.011
Inhibition of binding (%) [20]: 3%
Inhibition of binding (%) [21]: -1.1%
Inhibition of binding (%) [8]: -1.7%
% inhibition of TSH stimulation, 5B3 10 µg/mL, mutated TSHR [22]: 2%
% inhibition of TSH stimulation, 5B3 100 µg/mL, mutated TSHR [22]: 3%
Cyclic AMP produced (pmol/mL), 5B3 10 µg/mL + TSH 3 ng/mL, mutated TSHR [22]: 56.5 pmol/mL
Cyclic AMP produced (pmol/mL), 5B3 100 µg/mL + TSH 3 ng/mL, mutated TSHR [22]: 55.9 pmol/mL
Mutated/wild type (%) of cyclic AMP produced; 5B3 10 µg/mL + TSH 3 ng/mL [22]: 74%
Mutated/wild type (%) of cyclic AMP produced; 5B3 100 µg/mL + TSH 3 ng/mL [22]: 64%
% inhibition of TSH stimulation, 5B3 10 µg/mL, wild type TSHR (wild type TSHR (human)): 3%
Cyclic AMP produced (pmol/mL), 5B3 10 µg/mL + TSH 3 ng/mL, wild type TSHR (wild type TSHR (human)): 76.6 pmol/mL
Cyclic AMP produced (pmol/mL), 5B3 100 µg/mL + TSH 3 ng/mL, wild type TSHR (wild type TSHR (human)): 87.7 pmol/mL
% Inhibition; 10 ng/mL K1-18 IgG + 10 µg/mL 5B3 IgG [16]: 4%
% Inhibition; 10 ng/mL K1-18 IgG + 100 µg/mL 5B3 IgG [16]: -13%
Cyclic AMP concentration; 10 ng/mL K1-18 IgG + 10 µg/mL 5B3 IgG [16]: 35.4 pmol/mL
Cyclic AMP concentration; 10 ng/mL K1-18 IgG + 100 µg/mL 5B3 IgG [16]: 41.9 pmol/mL
Cyclic AMP concentration; 100 µg/mL 5B3 IgG [16]: 1.3 pmol/mL

Molecule: TSH (ligand)
% inhibition of TSH stimulation, TSH (2) run at the end of assay, mutated TSHR [22]: 18%
Cyclic AMP produced (pmol/mL), TSH 3 ng/mL, mutated TSHR [22]: 57.9 pmol/mL
Cyclic AMP produced (pmol/mL), TSH (2) 3 ng/mL run at the end of assay, mutated TSHR [22]: 47.7 pmol/mL
Mutated/wild type (%) of cyclic AMP produced; TSH 3 ng/mL [22]: 73%
Mutated/wild type (%) of cyclic AMP produced; TSH (2) 3 ng/mL, run at the end of assay [22]: 52%
Cyclic AMP produced (pmol/mL), TSH 3 ng/mL, wild type TSHR (wild type TSHR (human)): 79 pmol/mL
Cyclic AMP produced (pmol/mL), TSH (2) 3 ng/mL run at the end of assay, wild type TSHR (wild type TSHR (human)): 91.5 pmol/mL

Molecule: M22 IgG (antibody)
Mean absorbance at 405 nm (absorbance at 405 nm) [2]: 1.36
Inhibition of binding (%) [4]: -0.3%
Mean absorbance at 405 nm (absorbance at 405 nm) [5]: 0.017
Mean absorbance at 405 nm (absorbance at 405 nm) [10]: 0.05
Mean absorbance at 405 nm (absorbance at 405 nm) [14]: 0.332
Mean absorbance at 405 nm (absorbance at 405 nm) [15]: -0.007

Continued, values first:

Inhibition of binding (%) [1]: 50.8%
Mean absorbance at 405 nm (absorbance at 405 nm) [2]: 0.481
Inhibition of binding (%) [3]: 75.6%
Inhibition of binding (%) [4]: 3.6%
Mean absorbance at 405 nm (absorbance at 405 nm) [5]: 0.02
Inhibition of binding (%) [6]: -1.2%
Inhibition of binding (%) [7]: 67.4%
Inhibition of binding (%) [8]: 50.9%
Inhibition of binding (%) [9]: 47.7%
Mean absorbance at 405 nm (absorbance at 405 nm) [10]: 0.053
Inhibition of binding (%) [11]: 43.8%
Inhibition of binding (%) [12]: 86.8%
Inhibition of binding (%) [13]: 2.3%
Mean absorbance at 405 nm (absorbance at 405 nm) [14]: 0.056
Mean absorbance at 405 nm (absorbance at 405 nm) [15]: 0.001
% Inhibition; 10 ng/mL K1-18 IgG + 0.001 µg/mL 9D33 IgG [16]: 3%
% Inhibition; 10 ng/mL K1-18 IgG + 0.01 µg/mL 9D33 IgG [16]: 15%
% Inhibition; 10 ng/mL K1-18 IgG + 0.1 µg/mL 9D33 IgG [16]: 86%
% Inhibition; 10 ng/mL K1-18 IgG + 1 µg/mL 9D33 IgG [16]: 95%
% Inhibition; 10 ng/mL K1-18 IgG + 10 µg/mL 9D33 IgG [16]: 95%
% Inhibition; 10 ng/mL K1-18 IgG + 100 µg/mL 9D33 IgG [16]: 94%
Cyclic AMP concentration; 10 ng/mL K1-18 IgG + 0.001 µg/mL 9D33 IgG [16]: 35.8 pmol/mL
Cyclic AMP concentration; 10 ng/mL K1-18 IgG + 0.01 µg/mL 9D33 IgG [16]: 31.3 pmol/mL
Cyclic AMP concentration; 10 ng/mL K1-18 IgG + 0.1 µg/mL 9D33 IgG [16]: 5.3 pmol/mL
Cyclic AMP concentration; 10 ng/mL K1-18 IgG + 1 µg/mL 9D33 IgG [16]: 1.9 pmol/mL
Cyclic AMP concentration; 10 ng/mL K1-18 IgG + 10 µg/mL 9D33 IgG [16]: 1.9 pmol/mL
Cyclic AMP concentration; 10 ng/mL K1-18 IgG + 100 µg/mL 9D33 IgG [16]: 2.2 pmol/mL
Cyclic AMP concentration; 100 µg/mL 9D33 IgG [16]: 2 pmol/mL
Inhibition of binding (%) [17]: 55.7%
Inhibition of binding (%) [18]: 29.7%
Molecule: 9D33 IgG (antibody)

Mean absorbance at 405 nm (absorbance at 405 nm) (TSHR260-AP (human)): 0.669
Inhibition of binding (%) [3]: 82.9%
Inhibition of binding (%) [23]: 21.3%
Inhibition of binding (%) [6]: -4.4%
Inhibition of binding (%) [7]: 35.3%
% inhibition of TSH-biotin binding [24]: 7.5%
Inhibition of binding (%) [9]: 20.7%
Inhibition of binding (%) [11]: 41.5%
Inhibition of binding (%) [12]: 54.3%
Inhibition of binding (%) [25]: 48%
Inhibition of binding (%) [17]: 40.6%
Inhibition of binding (%) [18]: 21.9%
B1: 5C9 IgG (antibody, from another filing, V domains shown)
VH: EVQLVESGGGLIQPGGSLRLSCAASGFTVSSNYMSWVRQAPGKGLEWVSVTYSGGSTSYADSVKGRFTISRDNSKNTLYLQMNSLRAEDTAVYYCARGGRYCSSISCYARSGCDYWGQGTLVTVSS
VL: AIQMTQSPSSLSASVGDRVTITCRASQSISNYLNWYQQKPGKAPKLLIYAASSLQSGVPSRFSGSGSGTDFTLTISSLQPEDFATYYCQQSYSSPSTTFGQGTKLEIK
